Laboratory results: US20240109974A1 (SHANDONG SIMCERE BIOPHARMACEUTICAL, published 2024)

Columns and labels:
[1] = target: T1, human TNFR2 on the surface of CHO-TNFR2 cells (human, UniProt P20333 23-461); experiment: competition flow cytometry on CHO-TNFR2 cells, competitor TNFα-biotin; IC50 against 219-WT
T1 construct: whole, on cells
T1 sequence (looked up): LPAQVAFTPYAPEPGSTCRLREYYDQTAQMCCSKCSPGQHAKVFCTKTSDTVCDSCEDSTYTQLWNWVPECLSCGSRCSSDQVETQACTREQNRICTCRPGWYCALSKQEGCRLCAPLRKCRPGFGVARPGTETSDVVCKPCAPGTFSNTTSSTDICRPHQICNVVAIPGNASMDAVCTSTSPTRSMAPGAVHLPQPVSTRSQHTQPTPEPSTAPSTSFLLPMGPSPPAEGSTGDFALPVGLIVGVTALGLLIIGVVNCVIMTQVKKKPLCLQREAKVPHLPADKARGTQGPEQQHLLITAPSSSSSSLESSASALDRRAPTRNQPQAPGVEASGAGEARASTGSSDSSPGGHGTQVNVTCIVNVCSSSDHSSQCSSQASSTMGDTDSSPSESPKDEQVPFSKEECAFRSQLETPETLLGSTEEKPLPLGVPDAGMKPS
Method: (§1) CHO stable cells highly expressing human TNFR2 were used for the experiment (the same as CHO-TNFR2 in Example 4). The CHO-TNFR2 cells were digested, washed twice with DPBS, then stained with Live/Dead (L/D) (20 minutes at room temperature), and plated at a density of 1×10⁵ cells/50 μl/well. A test anti-TNFR2 antibody was diluted to 6 μg/ml with a staining buffer as the starting concentration: the antibody was subjected to 3.33-fold gradient dilution, with a total of 7 concentration points. The diluted antibody was added to the plated cells at 50 μl/well, and the mixture was mixed well by gentle pipetting, and incubated at 4° C. for 30 minutes. Then the diluted 100 ng/ml of human TNFα-biotin was added at 100 μl/well, and the mixture was mixed well by gentle pipetting, and then incubated at 4° C. for 30 minutes. The mixture was washed twice with a staining buffer, and then 0.12 μg/ml PE-streptavidin (BioLegend, Cat #405204) was added at 100 μl/well; the resulting mixture was incubated at 4° C. for 30 minutes. The mixture was washed twice with a staining buffer, and then 150 μl of staining buffer was added to resuspend the cells; signals were detected by a flow cytometer (Thermo Attune NxT). The inhibitory curve of an antibody was drawn with antibody concentration as the abscissa and corresponding MFI value as the ordinate, and fitted with four parameters (GraphPad Prism9) to calculate the IC50 value. The smaller the IC50 value, the stronger the ability of an antibody to inhibit the binding of human TNFα to human TNFR2. The blocking effect of a humanized antibody was normalized to its corresponding human-murine chimeric WT antibody. The higher the percentage value, the better the inhibitory effect of the humanized antibody.

[2] = target: T1, human TNFR2 on the surface of CHO-TNFR2 …; experiment: flow cytometry on CHO-TNFR2 cells; AUC against 001-WT
Method: The transfected full-length plasmid of human TNFR2 was purchased from Sino Biological (Cat #HG10417-UT, NCBI Ref Seq: NM_001066.2). The experiment was conducted at a cell density within 80%. The cell medium was discarded; the cells were rinsed with PBS, and digested with 1 ml trypsin for 2 minutes; the digestion was stopped with a Ham's F12 complete medium containing 10% FBS, and then a cell suspension was made. The cell suspension was counted, and then an appropriate amount of cell suspension was centrifuged at 350×g; the supernatant was discarded; a corresponding volume of blocking solution (10% FBS+PBS) at a density of 1×10⁷ cells/ml was added to resuspend the cells, and the mixture was incubated at 4° C. for 30 minutes. After the incubation, the mixture was centrifuged at 350×g to remove the supernatant, and the cells were resuspended in a staining buffer (2% FBS+PBS) to a density of 2×10⁶ cells/ml, and spread onto a 96-well plate, with 50 μl of cell suspension added to each well for later use. The antibody was diluted with PBS for 10-fold gradient dilution from the highest concentration of 20 μg/m (twice the concentration); the diluted antibody was added to the well containing 50 μl of cell suspension, and placed on a microplate shaker for shaking at 500 rpm for 1 minute, so that the antibody was fully mixed with the cells; the mixture was incubated at 4° C. for 1 h. After the incubation, the cells were washed twice with the staining buffer, with 100 μl per well, and centrifuged at 350-g for 5 minutes, and the supernatant was discarded. The PE goat anti-Human IgG Fc antibody (ebioscience, Cat #12-4998-82) was diluted 250-fold with the staining buffer, with a volume of 100 μl per well added to the washed cell wells; the mixture was mixed evenly, and stained at 4° C. for 30 minutes. After the staining, similarly, the cells were washed twice with the staining buffer; finally, the cells were resuspended in 200 μl of staining buffer; signals were detected by a flow cytometer (Thermo Attune NxT). The stronger the signal, the stronger the binding ability of an antibody to TNFR2. The binding curve of an antibody was drawn with antibody concentration as the abscissa and corresponding mean fluorescence intensity (MFI) fold as the ordinate, and fitted with four parameters (GraphPad Prism9) to calculate the EC50 value.

[3] = target: T1, human TNFR2 on the surface of CHO-TNFR2 …; experiment: competition flow cytometry on CHO-TNFR2 cells, competitor TNFα-biotin; AUC against 001-WT
Method: as §1

Row | Binder | % Relative activity (WT antibody/test antibody) [1] | % Relative activity (Test antibody/WT antibody) [2] | % Relative activity (WT antibody/test antibody) [3]
1 | 219-Hu3 (antibody, V domains shown, also called VH5 + VL5) VH: QVQLVQSGAEVKKPGSSVKVSCKASGYSFTNYWMNWVRQAPGQGLEWMGMIHPSDTETRLNQNFKDRVTITADKSTSTAYMELSSLRSEDTAVYYCARGEGLGAARSVSMDYWGQGTLVTVSS VL: DIQMTQSPSSLSASVGDRVTITCRASQDISNYLNWYQQKPDGTVKLLIYYTAILHSGVPSRFSGSGSGTDYSLTISSLQPEDFATYFCQQGNTLPWTFGQGTKVEIK | 120% |  | 
2 | 219-Hu4 (antibody, V domains shown, also called VH6 + VL5) VH: QVQLVQSGAEVKKPGSSVKVSCKASGYSFTNYWMNWVKQAPGQGLEWIGMIHPSDTETRLNQNFKDKATLTVDKSTSTAYMELSSLRSEDTAVYYCARGEGLGAARSVSMDYWGQGTLVTVSS VL: DIQMTQSPSSLSASVGDRVTITCRASQDISNYLNWYQQKPDGTVKLLIYYTAILHSGVPSRFSGSGSGTDYSLTISSLQPEDFATYFCQQGNTLPWTFGQGTKVEIK | 124% |  | 
3 | 219-Hu5 (antibody, V domains shown, also called VH7 + VL5) VH: QVQLVQSGAEVKKPGSSVKVSCKASGYSFTNYWMNWVRQAPGQGLEWMGMIHPSDTETRLNQNFKDRVTITVDKSTSTAYMELSSLRSEDTAVYYCARGEGLGAARSVSMDYWGQGTLVTVSS VL: DIQMTQSPSSLSASVGDRVTITCRASQDISNYLNWYQQKPDGTVKLLIYYTAILHSGVPSRFSGSGSGTDYSLTISSLQPEDFATYFCQQGNTLPWTFGQGTKVEIK | 138% |  | 
4 | 219-Hu1 (antibody, V domains shown, also called VH3 + VL5) VH: QVQLVQSGAEVKKPGASVKVSCKASGYSFTNYWMNWVRQAPGQRLEWMGMIHPSDTETRLNQNFKDRVTITRDTSASTAYMELSSLRSEDTAVYYCARGEGLGAARSVSMDYWGQGTLVTVSS VL: DIQMTQSPSSLSASVGDRVTITCRASQDISNYLNWYQQKPDGTVKLLIYYTAILHSGVPSRFSGSGSGTDYSLTISSLQPEDFATYFCQQGNTLPWTFGQGTKVEIK | 106% |  | 
5 | 219-Hu2 (antibody, V domains shown, also called VH4 + VL5) VH: QVQLVQSGAEVKKPGSSVKVSCKASGYSFTNYWMNWVRQAPGQGLEWMGMIHPSDTETRLNQNFKDKATITADKSTSTAYMELSSLRSEDTAVYYCARGEGLGAARSVSMDYWGQGTLVTVSS VL: DIQMTQSPSSLSASVGDRVTITCRASQDISNYLNWYQQKPDGTVKLLIYYTAILHSGVPSRFSGSGSGTDYSLTISSLQPEDFATYFCQQGNTLPWTFGQGTKVEIK | 127% |  | 
6 | 001-Hu5 (antibody, V domains shown, Humanized form of #001; also called VH1 + VL4) VH: EVQLVESGGGLVQPGGSLRLSCAASGFAFSTYDLSWVRQAPGKGLEWVAYINNGGISTYYSDTVKGRFTISRDNAKNTLYLQMNSLRAEDTAVYYCVRGPFYGSANYFDYWGQGTLVTVSS VL: DIQMTQSPSSLSASVGDRVTITCRTSESIYSNLPWYQQKPGKSPKLLVYDATKLAEGVPSRFSGSGSGTDYTLTISSLQPEDFATYYCQHFWVTPWTFGQGTKVEIK |  | 87.8% | 93.1%
7 | 001-Hu3 (antibody, V domains shown, Humanized form of #001; also called VH1 + VL3) VH: EVQLVESGGGLVQPGGSLRLSCAASGFAFSTYDLSWVRQAPGKGLEWVAYINNGGISTYYSDTVKGRFTISRDNAKNTLYLQMNSLRAEDTAVYYCVRGPFYGSANYFDYWGQGTLVTVSS VL: DIQMTQSPSSLSASVGDRVTITCRTSESIYSNLPWYQQKPGKAPKLLIYDATKLAEGVPSRFSGSGSGTDYTLTISSLQPEDFATYYCQHFWVTPWTFGQGTKVEIK |  | 87.8% | 97.8%
8 | 001-Hu1 (antibody, V domains shown, Humanized form of #001; also called VH1 + VL1) VH: EVQLVESGGGLVQPGGSLRLSCAASGFAFSTYDLSWVRQAPGKGLEWVAYINNGGISTYYSDTVKGRFTISRDNAKNTLYLQMNSLRAEDTAVYYCVRGPFYGSANYFDYWGQGTLVTVSS VL: DIQMTQSPSSLSASVGDRVTITCRTSESIYSNLPWYQQKPGKAPKLLLYDATKLAEGVPSRFSGSGSGTDYTLTISSLQPEDFATYYCQHFWVTPWTFGQGTKVEIK |  | 93.4% | 97.4%
9 | 001-Hu4 (antibody, V domains shown, Humanized form of #001; also called VH2 + VL4) VH: EVQLVESGGGLVQPGGSLRLSCAASGFAFSTYDLSWVRQAPGKGLEWVAYINNGGISTYYSDTVKGRFTISRDNAKNSLYLQMNSLRAEDTAVYYCVRGPFYGSANYFDYWGQGTLVTVSS VL: DIQMTQSPSSLSASVGDRVTITCRTSESIYSNLPWYQQKPGKSPKLLVYDATKLAEGVPSRFSGSGSGTDYTLTISSLQPEDFATYYCQHFWVTPWTFGQGTKVEIK |  | 92.2% | 93.7%
10 | 001-Hu2 (antibody, V domains shown, Humanized form of #001; also called VH2 + VL2) VH: EVQLVESGGGLVQPGGSLRLSCAASGFAFSTYDLSWVRQAPGKGLEWVAYINNGGISTYYSDTVKGRFTISRDNAKNSLYLQMNSLRAEDTAVYYCVRGPFYGSANYFDYWGQGTLVTVSS VL: DIQMTQSPSSLSASVGDRVTITCRTSESIYSNLPWYQQKPGKSPKLLIYDATKLAEGVPSRFSGSGSGTDFTLTISSLQPEDFATYYCQHFWVTPWTFGQGTKVEIK |  | 88.2% | 95.8%
